Experimental findings from patent publication US20250101120A1 (BEIJING SOLOBIO GENETECHNOLOGY, published 2025) are described below.

Sequences and labels used below:
T1: hFc-hFasL (fusion protein of human Fc fragment and human FasL extracellular region) (human, UniProt P48023 134-281)
T1 construct: the order here follows the name hFc-hFasL; also called hFc-FasL; hFc-hFasL antigen; not shown: human Fc fragment tag
T1 sequence: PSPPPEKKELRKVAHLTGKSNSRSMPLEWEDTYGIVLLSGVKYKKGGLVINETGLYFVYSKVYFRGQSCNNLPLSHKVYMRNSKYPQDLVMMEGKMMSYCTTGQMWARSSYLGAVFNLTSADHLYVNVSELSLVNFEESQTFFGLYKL

B1: humFL-M88-4 (antibody, human IgG4, V domains shown)
VH: QVQLVQSGAEVKKPGASVKVSCKGSGYTFTDYTIHWVRQAPGQGLEWMGVISTYQGDASYNQKFKGRVTMTVDKSTSTAYMELSSLRSEDTAVYYCARFPDWDYAMDYWGQGTLVTVSS
VL: EIVMTQSPATLSVSPGERATLSCKASQSVDYDGDSYMNWYQQKPGQPPRLLIYAASNLESGIPARFSGSGSGTEFTLTISSLQSEDFAVYYCQHSRELPYTFGQGTKLEIK
notes: Humanized FL-M88
B2: humFL-M88-11 (antibody, human IgG4, V domains shown)
VH: B1 VH with A79V
VL: B1 VL with P47A
notes: Humanized FL-M88
B3: humFL-M88-5 (antibody, human IgG4, V domains shown)
VH: B1 VH with A79V
VL: B1 VL
notes: Humanized FL-M88
B4: humFL-M88-9 (antibody, human IgG4, V domains shown)
VH: B1 VH with V68A
VL: B1 VL with P47A
notes: Humanized FL-M88
B5: humFL-M88-7 (antibody, human IgG4, V domains shown)
VH: B1 VH with M48I, V68A
VL: B1 VL with P47A
notes: Humanized FL-M88
B6: humFL-M88-18 (antibody, human IgG4, V domains shown)
VH: B1 VH with G24A, K74T, A79V
VL: B1 VL with H94Q
notes: Humanized FL-M88
B7: humFL-M88-17 (antibody, human IgG4, V domains shown)
VH: B1 VH with A79V
VL: B1 VL with H94Q
notes: Humanized FL-M88
B8: humFL-M88-12 (antibody, human IgG4, V domains shown)
VH: B1 VH with G24A, K74T, A79V
VL: B1 VL with P47A
notes: Humanized FL-M88
B9: humFL-M88-6 (antibody, human IgG4, V domains shown)
VH: B1 VH with G24A, K74T, A79V
VL: B1 VL
notes: Humanized FL-M88
B10: humFL-M54-1 (antibody, human IgG4, V domains shown)
VH: QVQLVQSGAEVKKPGSSVKVSCKASGYTFTRFDISWVRQAPGQGLEWIGWIFPGDGSSQYNENFKGRATLTTDKSTSTAYMELSSLRSEDTAVYFCARSLISTAMFDHWGQGTLVTVSS
VL: EIVMTQSPATLSVSPGERATLSCRASKSVSTSDFSYIHWYQQKPGQPPRLLIFLASHLESGIPARFSGSGSGTEFTLTISSLQSEDFAVYYCQHSRELPRTFGQGTKVEIK
B11: humFL-M54-11 (antibody, human IgG4, V domains shown)
VH: B10 VH
VL: B10 VL with P47A, F53Y
B12: humFL-M54-9 (antibody, human IgG4, V domains shown)
VH: B10 VH with I48M, A68V
VL: B10 VL with F53Y
B13: humFL-M54-4 (antibody, human IgG4, V domains shown)
VH: B10 VH with I48M, A68V
VL: B10 VL
B14: humFL-M54-8 (antibody, human IgG4, V domains shown)
VH: B10 VH with I48M, L70I
VL: B10 VL with F53Y
B15: humFL-M54-7 (antibody, human IgG4, V domains shown)
VH: B10 VH with I48M
VL: B10 VL with F53Y
B16: humFL-M54-3 (antibody, human IgG4, V domains shown)
VH: B10 VH with I48M, L70I
VL: B10 VL
B17: humFL-M54-13 (antibody, human IgG4, V domains shown)
VH: B10 VH with I48M, L70I
VL: B10 VL with P47A, F53Y
B18: humFL-M54-6 (antibody, human IgG4, V domains shown)
VH: B10 VH
VL: B10 VL with F53Y
B19: humFL-M54-10 (antibody, human IgG4, V domains shown)
VH: B10 VH with I48M, A68V, L70I, T72A
VL: B10 VL with F53Y
B20: humFL-M54-2 (antibody, human IgG4, V domains shown)
VH: B10 VH with I48M
VL: B10 VL
B21: humFL-M54-15 (antibody, human IgG4, V domains shown)
VH: B10 VH with I48M, A68V, L70I, T72A
VL: B10 VL with P47A, F53Y
B22: humFL-M54-14 (antibody, human IgG4, V domains shown)
VH: B10 VH with I48M, A68V
VL: B10 VL with P47A, F53Y
B23: humFL-M54-5 (antibody, human IgG4, V domains shown)
VH: B10 VH with I48M, A68V, L70I, T72A
VL: B10 VL
B24: humFL-M54-12 (antibody, human IgG4, V domains shown)
VH: B10 VH with I48M
VL: B10 VL with P47A, F53Y

Numbering of substitutions follows the chain as printed.

The target in the first assay is T1, hFc-hFasL (fusion protein of human Fc …). Nature of the assay: ELISA, hFc-hFasL coated, antibody titrated, anti-human kappa-HRP (protocol of Example 3.2).
For orientation: EC50 means the concentration at which the effect is half-maximal. Read a high EC50 as weaker potency. On to B1, for which a half-maximal response (EC50) required 0.288 nM.
Same read-out and setting: the result for B2 reads 0.343 nM; that for B3, 0.23 nM.
Still for that read-out and setting: the value for B4 was 0.284 nM.
Take B5: the half-maximal effective concentration (EC50) came to 0.34 nM.
Still for that read-out and setting: the value for B6 was 0.272 nM; that for B7 was 0.329 nM.
The molecule B8 had an EC50 of 0.276 nM.
The same measure, in the same setting: the result for B9 reads 0.235 nM.

The next assay has the same target. Nature of the assay: cell-based or functional assay.
For the molecule B10, the “HepG2 IC50(nM), FasL antigen-induced cell apoptosis” value (from here on “HepG2 IC50(nM)”) came out at 0.028 nM and the “Jurkat IC50(nM), FasL antigen-induced cell apoptosis” value (shortened to “Jurkat IC50(nM)”) is 0.035 nM.
The like results for B11 were, in that order, 0.028 nM and 0.037 nM.
The like results for B12 were, in that order, 0.026 nM and 0.035 nM.
In the case of B13, the “HepG2 IC50(nM)” value was determined as 0.03 nM and the “Jurkat IC50(nM)” value was 0.053 nM.
The like results for B14 were, in that order, 0.025 nM and 0.044 nM.
The like results for B15 were, in that order, 0.028 nM and 0.059 nM.
For the molecule B16, the “HepG2 IC50(nM)” value came out at 0.035 nM.
Take B17: the “HepG2 IC50(nM)” value amounted to 0.029 nM and the “Jurkat IC50(nM)” value turned out to be 0.028 nM.
As for B18, the “HepG2 IC50(nM)” value amounted to 0.031 nM.
B19: the “HepG2 IC50(nM)” value was 0.034 nM and the “Jurkat IC50(nM)” value came to 0.017 nM.
The like results for B20 were, in that order, 0.031 nM and 0.028 nM.
On the same counts, the results for B21 are 0.03 nM and 0.015 nM.
The like results for B22 were, in that order, 0.023 nM and 0.038 nM.
For B23, the “HepG2 IC50(nM)” value was determined as 0.027 nM and the “Jurkat IC50(nM)” value was 0.052 nM.
For B24, the “HepG2 IC50(nM)” value worked out at 0.032 nM and the “Jurkat IC50(nM)” value came to 0.015 nM.

Another assay shares this target. Nature of the assay: cell-based or functional assay. The source holds these as a separate data set.
As for B1, the “HepG2 IC50(nM)” value came to 0.0333 nM and the “Jurkat IC50(nM)” value is 0.0294 nM.
The like results for B3 were, in that order, 0.0222 nM and 0.0186 nM.
As for B4, the “HepG2 IC50(nM)” value was found to be 0.0225 nM and the “Jurkat IC50(nM)” value was determined as 0.022 nM.
For the molecule B5, the “HepG2 IC50(nM)” value is 0.0274 nM.
Turning to B6, the “Jurkat IC50(nM)” value came to 0.0325 nM.
Consider B8, for which the “Jurkat IC50(nM)” value was found to be 0.0234 nM.
Take B9: the “HepG2 IC50(nM)” value was found to be 0.0204 nM.
